Results from patent US20200230168, “NUCLEIC ACID OLIGOMERS AND USES THEREFOR” (Queensland University of Technology, published 2020).

Experiments:
THOC4 (ALYREF) = THOC4 (ALYREF) (UniProt Q86V81 Q86V81:2-257); test: SPR
hSSB1 = hSSB1 (Homo sapiens, UniProt Q9BQ15 Q9BQ15:1-211); test: SPR
Sequence of hSSB1 (Q9BQ15 whole entry, one chain of several): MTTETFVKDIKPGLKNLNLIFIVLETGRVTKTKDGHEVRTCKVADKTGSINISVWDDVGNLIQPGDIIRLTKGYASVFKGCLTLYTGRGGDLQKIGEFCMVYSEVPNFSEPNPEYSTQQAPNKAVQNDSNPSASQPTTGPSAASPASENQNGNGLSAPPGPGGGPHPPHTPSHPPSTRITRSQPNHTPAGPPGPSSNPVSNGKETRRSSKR

Binder | binding signal (THOC4 (ALYREF)) | binding signal (hSSB1)
GGUCGUAAUACUUUCACUUA (ssRNA, 2'-OMe all, full PS) [DKLS629224 (SEQ 12)] | 0.47 normalized Rmax | 0.97 normalized Rmax
CGGACUUGCCU (ssRNA, 2'-OMe all, full PS) [In3E3 5' truncation 11 nt] | 0.01 normalized Rmax | 0.09 normalized Rmax
CAGAGGCAGCAGUACGA (ssRNA, 2'-OMe all, full PS) [LSA_ATG 3' truncation 17 nt] | 1.46 normalized Rmax | 1.19 normalized Rmax
GUGCAUGGAAUCACGGAG (ssRNA, 2'-OMe all, full PS) [Open_A 3' truncation 18 nt] | 0.39 normalized Rmax | 1.03 normalized Rmax
CACGUACCUUAGUGCCUCAC (ssRNA, 2'-OMe all, ZEN at both ends) [Open_L ZEN (DKLS665920)] | -0.15 normalized Rmax | 
GAGGCAGCAGUACGACGG (ssRNA, 2'-OMe all, full PS) [LSA_ATG 5' truncation 18 nt] | 1.06 normalized Rmax | 0.77 normalized Rmax
GAGGCAGCAGUACGAC (ssRNA, 2'-OMe all, full PS) [LSA_ATG both-end truncation 16 nt] | 0.44 normalized Rmax | 0.67 normalized Rmax
GCCGGACUUGCCU (ssRNA, 2'-OMe all, full PS) [In3E3 5' truncation 13 nt] | 0.01 normalized Rmax | 0.22 normalized Rmax
CAGAGGCAGCAGUACGAC (ssRNA, 2'-OMe all, full PS) [LSA_ATG 3' truncation 18 nt] | 0.71 normalized Rmax | 0.64 normalized Rmax
GGCAGCAGUACGACGG (ssRNA, 2'-OMe all, full PS) [LSA_ATG 5' truncation 16 nt] | 0.49 normalized Rmax | 0.64 normalized Rmax
GUGCAUGGAAUCACGGAGU (ssRNA, 2'-OMe all, full PS) [Open_A 3' truncation 19 nt] | 0.47 normalized Rmax | 1.24 normalized Rmax
AGGCAGCAGUACGA (ssRNA, 2'-OMe all, full PS) [LSA_ATG both-end truncation 14 nt] | 1.02 normalized Rmax | 1.05 normalized Rmax
GUCUCCGUCGUCAUGCUGCC (ssRNA, 2'-OMe all, full PS) [ASO_ATG (DKLS421748)] | 0.33 normalized Rmax | 0.64 normalized Rmax
GUGCAUGGAAUCACGG (ssRNA, 2'-OMe all, full PS) [Open_A 3' truncation 16 nt] | 0.29 normalized Rmax | 0.66 normalized Rmax
CAGAGGCAGCAGUACGACG (ssRNA, 2'-OMe all, full PS) [LSA_ATG 3' truncation 19 nt] | 0.92 normalized Rmax | 0.78 normalized Rmax
UCAAGGAAGAUGGCAUUUCU (ssRNA, 2'-OMe all, full PS) [DKLS687764 (SEQ 14)] | 0.55 normalized Rmax | 1.12 normalized Rmax
GCAGCAGUACGACGG (ssRNA, 2'-OMe all, full PS) [LSA_ATG 5' truncation 15 nt] | 0.31 normalized Rmax | 0.46 normalized Rmax
AGAGGCAGCAGUACGACG (ssRNA, 2'-OMe all, full PS) [LSA_ATG both-end truncation 18 nt] | 0.81 normalized Rmax | 0.96 normalized Rmax
GUGCAUGGAAUCACGGA (ssRNA, 2'-OMe all, full PS) [Open_A 3' truncation 17 nt] | 1 normalized Rmax | 2.06 normalized Rmax
UCUCCCAGCAUGUGCCAU (ssRNA, 2'-OMe all, full PS) [DKLS832163 (SEQ 11)] | 0.33 normalized Rmax | 0.31 normalized Rmax
AGAGGCAGCAGUACGACGG (ssRNA, 2'-OMe all, full PS) [LSA_ATG 5' truncation 19 nt] | 1.1 normalized Rmax | 1.02 normalized Rmax
CAGAGGCAGCAGUACGACGG (ssRNA, 2'-OMe all, ZEN at both ends) [LSA_ATG ZEN (DKLS649218)] |  | 0.15 normalized Rmax
CAGAGGCAGCAGUACG (ssRNA, 2'-OMe all, full PS) [LSA_ATG 3' truncation 16 nt] | 0.53 normalized Rmax | 0.46 normalized Rmax
AGGCAGCAGUACGACGG (ssRNA, 2'-OMe all, full PS) [LSA_ATG 5' truncation 17 nt] | 0.8 normalized Rmax | 0.68 normalized Rmax
